Where two headings read alike, the source gives them in different places.
T1: human GITR (full length, on cells) (human, UniProt Q9Y5U5 26-241)
T1 sequence (looked up): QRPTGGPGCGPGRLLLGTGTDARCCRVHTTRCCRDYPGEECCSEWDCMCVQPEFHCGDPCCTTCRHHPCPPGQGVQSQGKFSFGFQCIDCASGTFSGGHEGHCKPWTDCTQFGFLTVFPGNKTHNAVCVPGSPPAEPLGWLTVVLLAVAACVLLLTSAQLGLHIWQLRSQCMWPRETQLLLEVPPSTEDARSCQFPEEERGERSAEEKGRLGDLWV

T2: hGITR-ECD-hFc (human, UniProt Q9Y5U5 26-161)
T2 construct: ECD put first; also called immunogen A; human GITR extracellular domain protein with hFc tag; not shown: human IgG Fc fragment (hFc) of the pCpC vector
T2 chain: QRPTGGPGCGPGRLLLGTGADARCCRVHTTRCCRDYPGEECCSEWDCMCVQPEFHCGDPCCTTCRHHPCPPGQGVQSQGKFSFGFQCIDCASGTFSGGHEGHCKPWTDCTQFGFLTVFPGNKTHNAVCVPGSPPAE


What was measured:
[1] = target: T1, human GITR (full length, on cells); test: cell-based or functional assay
[2] = target: T3, monkey GITR (full length, on cells) (monkey); test: flow cytometry (FACS) on 293F-cGITR cells, MFI curve fit
T3 construct: whole, on cells; also called cGITR
Procedure: (§1) The pIRES plasmid with the monkey-derived GITR full-length gene was transfected into the HEK293 cell line to construct a HEK293 stable cell line containing monkey GITR (herein referred to as HEK293-cGITR stable cell line), wherein the database accession number of the monkey GITR nucleotide sequence is XP_005545180.1. The tool antibody Tab9H6v3 was constructed with reference to the patent (US_2015_0064204_A1). […] The medium was aspirated, and the cells were incubated with chimeric anti-GITR antibody or IgG1 isotype control antibody in PBS+2% FBS for 1 hour so that the antibody binds to the GITR protein expressed on the cell surface. Cells were collected and washed, and then incubated with anti-human antibody conjugated with fluorescent dye at 4° C. for 1 hour. Mean fluorescence intensity (MFI) of chimeric anti-GITR antibodies bound to cells expressing hGITR or cGITR was determined by flow cytometry. The EC50 of the fitting curve was calculated by GraphPad Prism software. The antibody to be tested can bind to human or monkey GITR protein on the cell surface. The data in the table is the average fluorescence intensity values of the cell populations measured by MFI.

[3] = target: T3, monkey GITR (full length, on cells); test: as above; remark: listed apart in the source
Procedure: as §1

cGITR-ECD-hFc [4] = target: T4, cGITR-ECD-hFc (rhesus; human, UniProt F7DDV8 14-149); test: ELISA, cGITR-ECD-hFc coated on plate, HRP anti-human Fab detection
[5] = target: T1, human GITR (full length, on cells); test: cell-based or functional assay; remark: listed apart in the source
cGITR-ECD-hFc [6] = target: T4, cGITR-ECD-hFc; test: ELISA, cGITR-ECD-hFc coated on plate, HRP anti-human Fab detection; remark: listed apart in the source
hGITR-ECD-hFc [7] = target: T2, hGITR-ECD-hFc; test: ELISA, hGITR-ECD-hFc coated on plate, HRP anti-human Fab detection
Procedure: (§2) HGITR-ECD-hFc protein and cGITR-ECD-hFc protein were diluted to 1 μg/ml with PBS hydrochloric acid buffer (pH 7.2), and 100 μl dilution was added to 96-well ELISA microplate, and incubated at 4° C. overnight. The microplate was washed three times with 300 μl/well wash buffer PBST (PBS+0.05% Tween-20), 300 μl blocking buffer (PBST+1% BSA) was added to each well, and incubated at room temperature for 2 hours. The plate was washed three times, 100 μl, 10 μg/ml anti-GITR antibody was added to each well, and was incubated at 37° C. for 1 hour. The plate was washed three times, 100 μl horseradish peroxidase (HRP) labeled anti-human Fab secondary antibody was added to each well, and was incubated at 37° C. for half an hour. The plate was washed three times, 100 μl tetramethylbenzidine (TMB) was added to each well. After 15 minutes of color development, 50 μl 1N HCl termination solution was added to each well, and the OD450 value was read with a plate reader. The EC50 of the binding curve was calculated by GraphPad Prism software.
The binding activity of the engineered fully human anti-GITR antibody to the hGITR-ECD-hFc protein or the cGITR-ECD-hFc protein was detected by an enzyme-linked immunosorbent assay iaccording to the step (1) of Example 5.

hGITR-ECD-hFc [8] = target: T2, hGITR-ECD-hFc; test: SPR (Biacore T200), hGITR-ECD-hFc immobilised on CM5 chip, antibody as analyte
Procedure: The antigen hGITR-ECD-hFc was immobilized on the chip surface in manual mode using the running buffer HBS-EP+(10 mM HEPES, 150 mM NaCl, 3 mM EDTA, 0.05% P20, pH 7.4). First, a fresh mixture of 50 mM NHS and 200 mM EDC was used to activate the flow cell 4 of the tandem S CM5 sensor chip. The antigen was then diluted to 1 μg/ml with 10 mM NaAC (pH 5.0) and was injected into flow cell 4 for approximately 40 seconds. Finally, 1 M ethanolamine was used to block the remaining active coupling sites.
Buffer flow was maintained for 600 seconds to determine dissociation. To remove the test antibody from the surface, 10 mM Glycine-HCl (pH 1.5) was injected into flow cells 1 and 4 at a flow rate of 10 μ L/min for 30 seconds. The above steps were repeated for each concentration of continuously diluted antibodies.
The KD value of each antibody was evaluated using Biacore T200 evaluation software 3.0, where flow cell 1 was used as a reference flow cell.

hGITR-ECD-hFc [9] = target: T2, hGITR-ECD-hFc; test: ELISA, hGITR-ECD-hFc coated on plate, HRP anti-human Fab detection
Procedure: as §2

[10] = target: T1, human GITR (full length, on cells); test: flow cytometry (FACS) on 293F-hGITR cells, MFI curve fit
Procedure: as §1

[11] = target: T1, human GITR (full length, on cells); test: as above; remark: listed apart in the source
Procedure: as §1

T4 sequence (F7DDV8 entry or part of it): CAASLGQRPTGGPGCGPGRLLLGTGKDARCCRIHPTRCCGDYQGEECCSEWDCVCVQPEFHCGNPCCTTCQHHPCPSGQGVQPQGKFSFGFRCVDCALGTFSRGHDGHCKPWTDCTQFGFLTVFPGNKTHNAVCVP

Row | Activation of NF-κB activity, EC50 (nM), Coupling [1] [nM] | Activation of NF-κB activity, EC50 (nM), Non-coupling [1] [nM] | EC50 [2] [nM] | EC50 [3] [nM] | EC50 (cGITR-ECD-hFc [4]) [nM] | Activation of NF-κB activity, EC50 (nM), Coupling [5] [nM] | Activation of NF-κB activity, EC50 (nM), Non-coupling [5] [nM] | EC50 (cGITR-ECD-hFc [6]) [nM] | EC50 (hGITR-ECD-hFc [7]) [nM] | Kd (hGITR-ECD-hFc [8]) [nM] | koff (hGITR-ECD-hFc [8]) [s⁻¹] | kon (hGITR-ECD-hFc [8]) [M⁻¹ s⁻¹] | EC50 (hGITR-ECD-hFc [9]) [nM] | EC50 [10] [nM] | EC50 [11] [nM] | Binder
1 | 2.55 | 0.276 | 0.301 | 0.258 | 0.0529 | 5.78 | 0.0959 | 0.063 | 0.078 | 0.251 | 0.000185 | 737000 | 0.0544 | 0.141 | 0.203 | 3503-hab070 (antibody, V domains shown, also called 272G5E1; fully human anti-GITR antibody) VH: QVQLVESGGGVVQPGRSLRLSCAASGFTFSSYGMHWVRQAPGKGLEWVAVIWYETSNKFYVDSVKGRFTISRDNSKNTLYLQMNSLRAEDTAVYYCARYGASSGWYWYFDLWGRGTLVTVSS VL: DIQLTQSPSFLSASVGDRVTITCRASQGISSFLAWYQQKPGKAPKLLIYAASTLQSGVPSRFSGSGSGTEFTLTISSLQPEDFATYCCQQLNSYPFTFGQGTKLEIK
2 | 4.42 | 0.281 | 0.53 | 0.418 | 0.0717 | 10.9 | 0.166 | 0.115 | 0.11 | 0.401 | 0.000205 | 512000 | 0.0791 | 0.222 | 0.25 | 3503-hab019 (antibody, V domains shown, also called 96A10H9; fully human anti-GITR antibody) VH: QVQLVESGGGVVQPGRSLRLSCAASGFTFSSYGMHWVRQAPGKGLEWVAVIWYAGSRKFYADSVEGRFTISRDNSKNTLYLQMSSVRPEDTAVYYCARGGSLDGGFFYYGMDVWGQGTTVTVSS VL: not shown

— patent US20220119541A1 (PHARMAEXPLORER, published 2022)
